Usually kon stands for a measure of how fast the partners come together. Read a low kon as slow association.

Among the data in patent US20200157212A1 (Pfizer, published 2020) are binding result and kon values, retold here.

Test [1] deals with T1, Human ROBO2 KSR mutant overexpressed on HEK293 cells (human, UniProt Q9HCK4 22-1378).
T1 construct: R100K and K102R already in the entry
T1 sequence: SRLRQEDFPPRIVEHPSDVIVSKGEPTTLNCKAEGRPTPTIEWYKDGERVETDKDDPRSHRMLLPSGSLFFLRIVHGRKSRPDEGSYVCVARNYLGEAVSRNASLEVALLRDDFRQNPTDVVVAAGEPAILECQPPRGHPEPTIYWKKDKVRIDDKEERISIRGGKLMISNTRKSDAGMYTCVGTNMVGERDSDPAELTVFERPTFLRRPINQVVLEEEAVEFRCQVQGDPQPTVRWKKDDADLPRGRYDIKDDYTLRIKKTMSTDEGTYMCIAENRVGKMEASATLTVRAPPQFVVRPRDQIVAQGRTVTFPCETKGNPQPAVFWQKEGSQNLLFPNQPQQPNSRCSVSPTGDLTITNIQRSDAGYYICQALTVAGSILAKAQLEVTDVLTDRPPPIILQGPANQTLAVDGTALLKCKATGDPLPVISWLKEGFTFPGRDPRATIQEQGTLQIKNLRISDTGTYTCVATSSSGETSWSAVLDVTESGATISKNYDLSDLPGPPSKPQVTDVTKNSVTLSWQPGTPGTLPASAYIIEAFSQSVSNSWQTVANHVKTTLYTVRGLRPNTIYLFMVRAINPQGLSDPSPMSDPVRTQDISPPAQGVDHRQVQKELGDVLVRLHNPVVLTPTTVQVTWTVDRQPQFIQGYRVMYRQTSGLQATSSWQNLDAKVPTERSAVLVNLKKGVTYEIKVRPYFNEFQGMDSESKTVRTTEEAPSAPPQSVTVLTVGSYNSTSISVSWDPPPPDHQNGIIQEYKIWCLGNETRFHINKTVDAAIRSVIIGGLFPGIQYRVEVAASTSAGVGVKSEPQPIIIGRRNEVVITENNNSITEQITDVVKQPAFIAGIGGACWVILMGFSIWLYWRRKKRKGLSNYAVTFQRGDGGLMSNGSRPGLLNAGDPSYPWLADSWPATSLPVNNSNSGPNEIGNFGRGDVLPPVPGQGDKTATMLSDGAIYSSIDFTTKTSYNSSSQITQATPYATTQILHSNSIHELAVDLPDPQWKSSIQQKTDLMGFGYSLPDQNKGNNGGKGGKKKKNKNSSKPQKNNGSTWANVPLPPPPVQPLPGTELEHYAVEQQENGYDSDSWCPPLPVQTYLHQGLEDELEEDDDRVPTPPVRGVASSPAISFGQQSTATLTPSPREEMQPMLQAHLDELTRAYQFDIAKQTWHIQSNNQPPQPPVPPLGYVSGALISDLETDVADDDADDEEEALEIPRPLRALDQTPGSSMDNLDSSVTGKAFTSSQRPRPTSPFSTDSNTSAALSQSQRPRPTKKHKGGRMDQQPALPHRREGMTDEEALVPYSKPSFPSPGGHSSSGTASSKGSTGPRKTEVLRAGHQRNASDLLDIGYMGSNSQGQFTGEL
Description: mutagenesis study.

A further test addresses T2, Human ROBO2 Ig1-Ig2-His (human, UniProt Q9HCK4 31-220).
T2 construct: the His tag is named only in the SPR paragraphs; the Octet and ELISA paragraphs print 'ROBO2 Ig1-Ig2' without a tag; also called ROBO2 Ig1-2; Human ROBO2 Ig 1,2
T2 sequence: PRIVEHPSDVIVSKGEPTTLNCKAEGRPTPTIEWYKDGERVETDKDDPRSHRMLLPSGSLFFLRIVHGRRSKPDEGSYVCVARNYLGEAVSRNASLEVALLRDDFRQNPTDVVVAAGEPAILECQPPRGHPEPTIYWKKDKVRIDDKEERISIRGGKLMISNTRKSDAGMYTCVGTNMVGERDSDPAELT
Nature of the test: SPR (Biacore T200), Abcs35 immobilized on a CM5 chip, ROBO2 Ig1-Ig2-His as analyte; column head kon(1/Ms). The method, then:
[…] Association and dissociation were followed over time.
Based upon several criteria, Abcs25 and Abcs35 were selected for further characterization. Using flow cytometry, improvement in the binding EC₅₀ to human ROBO2 relative to the parental 93H2 was evaluated. Starting at 6.7 nM, 11-point, 3-fold dilution series were made for each antibody and used to stain HEK293 overexpressing human ROBO2 as described above for the ROBO2 fold selectivity (Example 2). […] In addition to measuring improved binding to human ROBO2, it was important to ensure that high affinity binding to both cynomolgus monkey ROBO2 and rat ROBO2 was maintained. Using HEK293 cells overexpressing either cynomolgus monkey ROBO2 or rat ROBO2, the relative dose-dependent binding of 93H2, Abcs25 and Abcs35 was evaluated as described above. High affinity binding to both cynomolgus monkey and rat ROBO2 was maintained in Abcs25 and Abcs35 (Table 4). […] Briefly, Abcs35 was immobilized to 300 resonance units (RU) on a CM5 chip. Association of ROBO2 Ig1-Ig2-His (ROBO2) was measured over 5 minutes and dissociation was followed for a period of 10 minutes.
In general terms: Surface plasmon resonance follows binding to a sensor surface in real time, without labels.

B1: 93H2 (antibody, human IgG1, kappa, V domains shown)
VH: EVQLVQSGAEVKKPGASVKVSCKASGYTFTGYYMHWVRQAPGQGLEWMGWINPNSGATNFPQKFQGRVTMTRDTSITTAYMDLSRLRSDDTAVYYCARESGDDAFDIWGQGTMVTVSS
VL: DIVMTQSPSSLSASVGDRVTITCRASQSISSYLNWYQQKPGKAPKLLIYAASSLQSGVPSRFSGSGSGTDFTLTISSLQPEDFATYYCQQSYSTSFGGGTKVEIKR
notes: also called parental 93H2; 93H2 mAb
With B1, the binding result in test [1] is given as “no binding”.

B2: Abcs35 (antibody, human IgG1, kappa)
heavy: EVQLVQSGAEVKKPGASVKVSCKASGYTFTGYYMHWVRQAPGQGLEWMGWINPKNGDTEFPQKFQGRVTMTRDTSITTAYMDLSRLRSDDTAVYYCARESGDDAFDIWGQGTMVTVSSASTKGPSVFPLAPSSKSTSGGTAALGCLVKDYFPEPVTVSWNSGALTSGVHTFPAVLQSSGLYSLSSVVTVPSSSLGTQTYICNVNHKPSNTKVDKKVEPKSCDKTHTCPPCPAPEAAGAPSVFLFPPKPKDTLMISRTPEVTCVVVDVSHEDPEVKFNWYVDGVEVHNAKTKPREEQYNSTYRVVSVLTVLHQDWLNGKEYKCKVSNKALPAPIEKTISKAKGQPREPQVYTLPPSREEMTKNQVSLTCLVKGFYPSDIAVEWESNGQPENNYKTTPPVLDSDGSFFLYSKLTVDKSRWQQGNVFSCSVMHEALHNHYTQKSLSLSPGK
light: DIVMTQSPSSLSASVGDRVTITCRASQSISSYLNWYQQKPGKAPKLLIYAASSLQSGVPSRFSGSGSGTDFTLTISSLQPEDFATYYCQQSVGLFFGGGTKVEIKRTVAAPSVFIFPPSDEQLKSGTASVVCLLNNFYPREAKVQWKVDNALQSGNSQESVTEQDSKDSTYSLSSTLTLSKADYEKHKVYACEVTHQGLSSPVTKSFNRGEC
notes: fully human IgG1; VH of Ab96 with VL of Ab123
B2: the kon in the test with Human ROBO2 Ig1-Ig2-His came to 2.96e+07 M⁻¹ s⁻¹.
